How the values were obtained:
P5SC1 = target: T1, P5SC1; assay: two-hybrid library CC1; conditions: mean of both orientations;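 note: natural log of median RNA to DNA barcode read ratio; higher means stronger binding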
T1 chain: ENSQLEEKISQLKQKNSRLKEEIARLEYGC

P5 = target: T2, P5; assay: two-hybrid library CC1; conditions: mean of both orientations;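 note: natural log of median RNA to DNA barcode read ratio; higher means stronger binding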
T2 chain: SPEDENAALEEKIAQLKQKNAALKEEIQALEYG

P4 = target: T3, P4; assay: two-hybrid library CC1; conditions: mean of both orientations;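 note: natural log of median RNA to DNA barcode read ratio; higher means stronger binding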
T3 chain: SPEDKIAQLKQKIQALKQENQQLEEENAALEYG

P8 = target: T4, P8; assay: two-hybrid library CC1; conditions: mean of both orientations;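 note: natural log of median RNA to DNA barcode read ratio; higher means stronger binding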
T4 chain: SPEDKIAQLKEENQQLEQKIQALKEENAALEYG

P5mS = target: T5, P5mS; assay: two-hybrid library CC1; conditions: mean of both orientations;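 note: natural log of median RNA to DNA barcode read ratio; higher means stronger binding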
T5 chain: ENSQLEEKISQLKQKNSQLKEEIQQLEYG

P5SC2 = target: T6, P5SC2; assay: two-hybrid library CC1; conditions: mean of both orientations;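 note: natural log of median RNA to DNA barcode read ratio; higher means stronger binding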
T6 chain: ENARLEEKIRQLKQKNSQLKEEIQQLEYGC

P3mS = target: T7, P3mS; assay: two-hybrid library CC1
T7 chain: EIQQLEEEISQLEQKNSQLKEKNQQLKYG

P6SC1 = target: T8, P6SC1; assay: two-hybrid library CC1; conditions: mean of both orientations
T8 chain: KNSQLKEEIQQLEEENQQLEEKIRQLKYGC

P6SC2 = target: T9, P6SC2; assay: two-hybrid library CC1; conditions: mean of both orientations
T9 chain: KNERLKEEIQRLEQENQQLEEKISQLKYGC

P6mS = target: T10, P6mS; assay: two-hybrid library CC1; conditions: mean of both orientations
T10 chain: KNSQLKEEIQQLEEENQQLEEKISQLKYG

P9 = target: T11, P9; assay: two-hybrid library CC1; conditions: mean of both orientations
T11 chain: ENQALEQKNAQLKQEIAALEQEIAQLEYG

P4mS = target: T12, P4mS; assay: two-hybrid library CC1; conditions: mean of both orientations
T12 chain: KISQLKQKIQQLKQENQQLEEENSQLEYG

P7mS = target: T13, P7mS; assay: two-hybrid library CC1; conditions: mean of both orientations
T13 chain: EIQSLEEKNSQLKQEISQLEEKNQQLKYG

P6 = target: T14, P6; assay: two-hybrid library CC1; conditions: mean of both orientations
T14 chain: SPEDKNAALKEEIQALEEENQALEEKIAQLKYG

P7 = target: T15, P7; assay: two-hybrid library CC1; conditions: mean of both orientations
T15 chain: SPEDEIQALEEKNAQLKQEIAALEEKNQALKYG

P8mS = target: T16, P8mS; assay: two-hybrid library CC1; conditions: mean of both orientations
T16 chain: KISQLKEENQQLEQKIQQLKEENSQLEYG

4H3907-bA = target: T17, 4H3907-bA; assay: two-hybrid library CCNG1
T17 chain: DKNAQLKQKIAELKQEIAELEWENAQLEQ

4H883-bH = target: T18, 4H883-bH; assay: two-hybrid library CCNG1
T18 chain: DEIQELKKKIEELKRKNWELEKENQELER

4H3185-bH = target: T19, 4H3185-bH; assay: two-hybrid library CCNG1
T19 chain: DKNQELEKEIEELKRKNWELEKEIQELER

4H2729-bH = target: T20, 4H2729-bH; assay: two-hybrid library CCNG1
T20 chain: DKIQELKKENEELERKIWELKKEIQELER

4H908-bH = target: T21, 4H908-bH; assay: two-hybrid library CCNG1
T21 chain: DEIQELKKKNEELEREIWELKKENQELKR

4H883-bA = target: T22, 4H883-bA; assay: two-hybrid library CCNG1
T22 chain: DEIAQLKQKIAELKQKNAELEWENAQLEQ

4H2618-bH = target: T23, 4H2618-bH; assay: two-hybrid library CCNG1
T23 chain: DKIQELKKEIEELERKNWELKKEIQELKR

4H918-bH = target: T24, 4H918-bH; assay: two-hybrid library CCNG1
T24 chain: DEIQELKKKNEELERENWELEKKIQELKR

4H3354-bH = target: T25, 4H3354-bH; assay: two-hybrid library CCNG1
T25 chain: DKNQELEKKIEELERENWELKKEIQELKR

4H331-bH = target: T26, 4H331-bH; assay: two-hybrid library CCNG1
T26 chain: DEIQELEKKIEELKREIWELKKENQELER

4H338-bH = target: T27, 4H338-bH; assay: two-hybrid library CCNG1
T27 chain: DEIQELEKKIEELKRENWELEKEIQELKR

4H568-bH = target: T28, 4H568-bH; assay: two-hybrid library CCNG1
T28 chain: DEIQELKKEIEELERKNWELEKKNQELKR

4H2667-bH = target: T29, 4H2667-bH; assay: two-hybrid library CCNG1
T29 chain: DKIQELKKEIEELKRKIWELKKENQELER

4H3427-bH = target: T30, 4H3427-bH; assay: two-hybrid library CCNG1
T30 chain: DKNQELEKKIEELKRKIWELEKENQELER

4H797-bH = target: T31, 4H797-bH; assay: two-hybrid library CCNG1
T31 chain: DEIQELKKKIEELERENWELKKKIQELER

4H575-bH = target: T32, 4H575-bH; assay: two-hybrid library CCNG1; conditions: mean of both orientations
T32 chain: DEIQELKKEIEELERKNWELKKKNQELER

4H2442-bH = target: T33, 4H2442-bH; assay: two-hybrid library CCNG1
T33 chain: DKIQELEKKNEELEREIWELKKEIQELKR

4H717-bH = target: T34, 4H717-bH; assay: two-hybrid library CCNG1
T34 chain: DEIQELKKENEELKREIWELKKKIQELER

4H953-bH = target: T35, 4H953-bH; assay: two-hybrid library CCNG1
T35 chain: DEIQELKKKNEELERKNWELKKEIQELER

4H454-bH = target: T36, 4H454-bH; assay: two-hybrid library CCNG1
T36 chain: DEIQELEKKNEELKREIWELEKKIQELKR

4H2576-bH = target: T37, 4H2576-bH; assay: two-hybrid library CCNG1
T37 chain: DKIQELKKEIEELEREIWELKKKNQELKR

4H754-bH = target: T38, 4H754-bH; assay: two-hybrid library CCNG1
T38 chain: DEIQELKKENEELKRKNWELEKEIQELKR

4H967-bH = target: T39, 4H967-bH; assay: two-hybrid library CCNG1
T39 chain: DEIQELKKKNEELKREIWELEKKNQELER

4H72-bH = target: T40, 4H72-bH; assay: two-hybrid library CCNG1
T40 chain: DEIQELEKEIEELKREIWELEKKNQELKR

4H4001-bH = target: T41, 4H4001-bH; assay: two-hybrid library CCNG1
T41 chain: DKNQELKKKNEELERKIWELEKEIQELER

4H3782-bH = target: T42, 4H3782-bH; assay: two-hybrid library CCNG1
T42 chain: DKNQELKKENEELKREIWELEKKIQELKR

4H687-bH = target: T43, 4H687-bH; assay: two-hybrid library CCNG1
T43 chain: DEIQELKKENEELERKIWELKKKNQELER

4H3112-bH = target: T44, 4H3112-bH; assay: two-hybrid library CCNG1
T44 chain: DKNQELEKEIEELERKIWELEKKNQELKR

4H3855-bH = target: T45, 4H3855-bH; assay: two-hybrid library CCNG1
T45 chain: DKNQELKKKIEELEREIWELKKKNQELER

O12 = target: T46, O12; assay: two-hybrid library CCNG1
T46 chain: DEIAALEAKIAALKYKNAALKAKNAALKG

B1: P3mS (peptide)
chain: EIQQLEEEISQLEQKNSQLKEKNQQLKYG
Question: With B1 as the binder, how does the interaction score (P5SC1) read?
Answer: -2.77

Question: And the interaction score (P5)?
Answer: -2.93

Question: And the interaction score (P4)?
Answer: -0.0449

Question: What about the interaction score (P8) of the same binder?
Answer: -2.54

Question: What about the interaction score (P5mS) of the same binder?
Answer: -2.69

Question: And the interaction score (P5SC2)?
Answer: -2.78

Question: And the interaction score (P3mS)?
Answer: -3.24

Question: What about the interaction score (P6SC1) of the same binder?
Answer: -2.8

Question: And the interaction score (P6SC2)?
Answer: -2.5

Question: And the interaction score (P6mS)?
Answer: -2.74

Question: And the interaction score (P9)?
Answer: -2.34

Question: And the interaction score (P4mS)?
Answer: 0.221

Question: And the interaction score (P7mS)?
Answer: -2.96

Question: And the interaction score (P6)?
Answer: -2.8

Question: What about the interaction score (P7) of the same binder?
Answer: -2.64

Question: What about the interaction score (P8mS) of the same binder?
Answer: -2.87

B2: 4H2442-bH (peptide)
chain: DKIQELEKKNEELEREIWELKKEIQELKR
Question: B2 was tested. Which interaction score (4H3907-bA) did it give?
Answer: -1.28

Question: What about the interaction score (4H883-bH) of the same binder?
Answer: 0.442

Question: And the interaction score (4H3185-bH)?
Answer: -0.571

Question: What about the interaction score (4H2729-bH) of the same binder?
Answer: 1.77

Question: What about the interaction score (4H908-bH) of the same binder?
Answer: -0.628

Question: What about the interaction score (4H883-bA) of the same binder?
Answer: -2.1

Question: What about the interaction score (4H2618-bH) of the same binder?
Answer: 1.93

Question: What about the interaction score (4H918-bH) of the same binder?
Answer: -0.517

Question: What about the interaction score (4H3354-bH) of the same binder?
Answer: 0.0703

Question: What about the interaction score (4H331-bH) of the same binder?
Answer: -0.168

Question: What about the interaction score (4H338-bH) of the same binder?
Answer: 0.526

Question: What about the interaction score (4H568-bH) of the same binder?
Answer: -0.0562

Question: And the interaction score (4H2667-bH)?
Answer: -0.37

Question: What about the interaction score (4H3427-bH) of the same binder?
Answer: -0.00664

Question: And the interaction score (4H797-bH)?
Answer: -0.629

Question: What about the interaction score (4H575-bH) of the same binder?
Answer: 0.167

Question: What about the interaction score (4H2442-bH) of the same binder?
Answer: 1.25

Question: And the interaction score (4H717-bH)?
Answer: 0.313

Question: What about the interaction score (4H953-bH) of the same binder?
Answer: 0.587

Question: And the interaction score (4H454-bH)?
Answer: 1.64

Question: And the interaction score (4H2576-bH)?
Answer: 0.27

Question: And the interaction score (4H754-bH)?
Answer: -0.751

Question: What about the interaction score (4H967-bH) of the same binder?
Answer: 0.424

Question: And the interaction score (4H72-bH)?
Answer: -2.01

Question: And the interaction score (4H4001-bH)?
Answer: -0.244

Question: And the interaction score (4H3782-bH)?
Answer: -0.566

Question: And the interaction score (4H687-bH)?
Answer: -0.163

Question: And the interaction score (4H3112-bH)?
Answer: -0.123

Question: What about the interaction score (4H3855-bH) of the same binder?
Answer: -1.1

B3: 4H967-bH (peptide)
chain: DEIQELKKKNEELKREIWELEKKNQELER
Question: With B3 as the binder, how does the interaction score (4H967-bH) read?
Answer: -0.406

Question: What about the interaction score (O12) of the same binder?
Answer: -1.53
